Measured values taken from IntAct's records for PubMed 27754869.

B1: Natural cytotoxicity triggering receptor 3 (Homo sapiens), O14931 (parent)
chain: MAWMLLLILIMVHPGSCALWVSQPPEIRTLEGSSAFLPCSFNASQGRLAIGSVTWFRDEVVPGKEVRNGTPEFRGRLAPLASSRFLHDHQAELHIRDVRGHDASIYVCRVEVLGLGVGTGNGTRLVVEKEHPQLGAGTVLLLRAGFYAVSFLSVAVGSTVYYQGKCLTWKGPRRQLPAVVPAPLPPPCGSSAHLLPPVPGG
partner: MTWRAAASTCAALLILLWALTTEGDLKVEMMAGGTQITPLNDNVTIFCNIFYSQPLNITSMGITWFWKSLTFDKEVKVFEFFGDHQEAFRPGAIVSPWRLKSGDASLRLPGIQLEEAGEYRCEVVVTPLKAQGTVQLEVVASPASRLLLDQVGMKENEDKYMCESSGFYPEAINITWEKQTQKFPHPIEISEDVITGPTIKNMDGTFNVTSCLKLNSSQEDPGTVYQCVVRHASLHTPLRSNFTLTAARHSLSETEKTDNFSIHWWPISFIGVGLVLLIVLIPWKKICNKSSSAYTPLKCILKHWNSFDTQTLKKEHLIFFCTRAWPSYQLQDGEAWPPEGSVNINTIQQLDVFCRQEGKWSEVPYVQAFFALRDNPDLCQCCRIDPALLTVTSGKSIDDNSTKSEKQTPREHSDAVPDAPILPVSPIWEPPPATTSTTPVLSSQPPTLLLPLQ
B2: Natural cytotoxicity triggering receptor 3 (Homo sapiens), O14931 (parent)
chain: B1 chain

Variants of: B1
Conditions: with nr3l1_human NCR3LG1, Q68D85

Variant | effect of a mutation on the interaction
MAWMLLLILIMVHPGSCALWVSQPPEIRTLEGSSAFLPCSFNASQGRLAIGSVTWFRDEVVPGKEVRNGTPEFRGRLAPLASSRFLHDHQAELHIRDVRGHDASIYVCRVEVLGLGVGTGNGTRLVVEKEHPQLGAGTVLLLAAGFYAVSFLSVAVGSTVYYQGKCLTWKGPRRQLPAVVPAPLPPPCGSSAHLLPPVPGG [R143A] | decreasing interaction strength
MAWMLLLILIMVHPGSCALWVSQPPEIRTLEGSSAFLPCSFNASQGRLAIGSVTWFRDEVVPGKEVRNGTPEFRGRLAPLASSRFLHDHQAELHIRDVRGHDASIYVCRVEVLGLGVGTGNGTRLVVEKEHPQLGAGTVLALRAGFYAVSFLSVAVGSTVYYQGKCLTWKGPRRQLPAVVPAPLPPPCGSSAHLLPPVPGG [L141A] | with no effect
MAWMLLLILIMVHPGSCALWVSQPPEIRTLEGSSAFLPCSFNASQGRLAIGSVTWFRDEVVPGKEVRNGTPEFRGRLAPLASSRFLHDHQAELHIRDVRGHDASIYVCRVEVLGLGVGTGNGTRLVVEKEHPQAGAGTVLLLRAGFYAVSFLSVAVGSTVYYQGKCLTWKGPRRQLPAVVPAPLPPPCGSSAHLLPPVPGG [L134A] | decreasing interaction strength
MAWMLLLILIMVHPGSCALWVSQPPEIRTLEGSSAFLPCSFNASQGRLAIGSVTWFRDEVVPGKEVRNGTPEFRGRLAPLASSRFLHDHQAELHIRDVRGHDASIYVCRVEVLGLGVGTGNGTRLVVEKAHPQLGAGTVLLLRAGFYAVSFLSVAVGSTVYYQGKCLTWKGPRRQLPAVVPAPLPPPCGSSAHLLPPVPGG [E130A] | decreasing interaction strength
MAWMLLLILIMVHPGSCALWVSQPPEIRTLEGSSAFLPCSFNASQGRLAIGSVTWFRDEVVPGKEVRNGTPEFRGRLAPLASSRFLHDHQAELHIRDVRGHDASIYVCRVEVLGLGVGTGNGTRLVVEKEHPQLAAGTVLLLRAGFYAVSFLSVAVGSTVYYQGKCLTWKGPRRQLPAVVPAPLPPPCGSSAHLLPPVPGG [G135A] | decreasing interaction strength
MAWMLLLILIMVHPGSCALWVSQPPEIRTLEGSSAFLPCSFNASQGRLAIGSVTWFRDEVVPGKEVRNGTPEFRGRLAPLASSRFLHDHQAELHIRDVRGHDASIYVCRVEVLGLGVGTGNGTRLVVEKEAPQLGAGTVLLLRAGFYAVSFLSVAVGSTVYYQGKCLTWKGPRRQLPAVVPAPLPPPCGSSAHLLPPVPGG [H131A] | decreasing interaction strength
MAWMLLLILIMVHPGSCALWVSQPPEIRTLEGSSAFLPCSFNASQGRLAIGSVTWFRDEVVPGKEVRNGTPEFRGRLAPLASSRFLHDHQAELHIRDVRGHDASIYVCRVEVLGLGVGTGNGTRLVVEKEHPQLGAGTALLLRAGFYAVSFLSVAVGSTVYYQGKCLTWKGPRRQLPAVVPAPLPPPCGSSAHLLPPVPGG [V139A] | increasing interaction strength
MAWMLLLILIMVHPGSCALWVSQPPEIRTLEGSSAFLPCSFNASQGRLAIGSVTWFRDEVVPGKEVRNGTPEFRGRLAPLASSRFLHDHQAELHIRDVRGHDASIYVCRVEVLGLGVGTGNGTRLVVEKEHPQLGAGTVLLARAGFYAVSFLSVAVGSTVYYQGKCLTWKGPRRQLPAVVPAPLPPPCGSSAHLLPPVPGG [L142A] | increasing interaction strength
MAWMLLLILIMVHPGSCALWVSQPPEIRTLEGSSAFLPCSFNASQGRLAIGSVTWFRDEVVPGKEVRNGTPEFRGRLAPLASSRFLHDHQAELHIRDVRGHDASIYVCRVEVLGLGVGTGNGTRLVVEKEHAQLGAGTVLLLRAGFYAVSFLSVAVGSTVYYQGKCLTWKGPRRQLPAVVPAPLPPPCGSSAHLLPPVPGG [P132A] | with no effect
MAWMLLLILIMVHPGSCALWVSQPPEIRTLEGSSAFLPCSFNASQGRLAIGSVTWFRDEVVPGKEVRNGTPEFRGRLAPLASSRFLHDHQAELHIRDVRGHDASIYVCRVEVLGLGVGTGNGTRLVVEAEHPQLGAGTVLLLRAGFYAVSFLSVAVGSTVYYQGKCLTWKGPRRQLPAVVPAPLPPPCGSSAHLLPPVPGG [K129A] | decreasing interaction strength
MAWMLLLILIMVHPGSCALWVSQPPEIRTLEGSSAFLPCSFNASQGRLAIGSVTWFRDEVVPGKEVRNGTPEFRGRLAPLASSRFLHDHQAELHIRDVRGHDASIYVCRVEVLGLGVGTGNGTRLVVEKEHPALGAGTVLLLRAGFYAVSFLSVAVGSTVYYQGKCLTWKGPRRQLPAVVPAPLPPPCGSSAHLLPPVPGG [Q133A] | decreasing interaction strength
MAWMLLLILIMVHPGSCALWVSQPPEIRTLEGSSAFLPCSFNASQGRLAIGSVTWFRDEVVPGKEVRNGTPEFRGRLAPLASSRFLHDHQAELHIRDVRGHDASIYVCRVEVLGLGVGTGNGTRLVVEKEHPQLGAATVLLLRAGFYAVSFLSVAVGSTVYYQGKCLTWKGPRRQLPAVVPAPLPPPCGSSAHLLPPVPGG [G137A] | with no effect
MAWMLLLILIMVHPGSCALWVSQPPEIRTLEGSSAFLPCSFNASQGRLAIGSVTWFRDEVVPGKEVRNGTPEFRGRLAPLASSRFLHDHQAELHIRDVRGHDASIYVCRVEVLGLGVGTGNGTRLVVEKEHPQLGAGAVLLLRAGFYAVSFLSVAVGSTVYYQGKCLTWKGPRRQLPAVVPAPLPPPCGSSAHLLPPVPGG [T138A] | decreasing interaction strength
MAWMLLLILIMVHPGSCALWVSQPPEIRTLEGSSAFLPCSFNASQGRLAIGSVTWFRDEVVPGKEVRNGTPEFRGRLAPLASSRFLHDHQAELHIRDVRGHDASIYVCRVEVLGLGVGTGNGTRLVVEKEHPQLGAGTVALLRAGFYAVSFLSVAVGSTVYYQGKCLTWKGPRRQLPAVVPAPLPPPCGSSAHLLPPVPGG [L140A] | increasing interaction strength

Variants of: B2
Conditions: with BAG6, P46379-2
Chain of BAG6, P46379-2 (P46379 other isoform, or with tags, fused parts or gaps): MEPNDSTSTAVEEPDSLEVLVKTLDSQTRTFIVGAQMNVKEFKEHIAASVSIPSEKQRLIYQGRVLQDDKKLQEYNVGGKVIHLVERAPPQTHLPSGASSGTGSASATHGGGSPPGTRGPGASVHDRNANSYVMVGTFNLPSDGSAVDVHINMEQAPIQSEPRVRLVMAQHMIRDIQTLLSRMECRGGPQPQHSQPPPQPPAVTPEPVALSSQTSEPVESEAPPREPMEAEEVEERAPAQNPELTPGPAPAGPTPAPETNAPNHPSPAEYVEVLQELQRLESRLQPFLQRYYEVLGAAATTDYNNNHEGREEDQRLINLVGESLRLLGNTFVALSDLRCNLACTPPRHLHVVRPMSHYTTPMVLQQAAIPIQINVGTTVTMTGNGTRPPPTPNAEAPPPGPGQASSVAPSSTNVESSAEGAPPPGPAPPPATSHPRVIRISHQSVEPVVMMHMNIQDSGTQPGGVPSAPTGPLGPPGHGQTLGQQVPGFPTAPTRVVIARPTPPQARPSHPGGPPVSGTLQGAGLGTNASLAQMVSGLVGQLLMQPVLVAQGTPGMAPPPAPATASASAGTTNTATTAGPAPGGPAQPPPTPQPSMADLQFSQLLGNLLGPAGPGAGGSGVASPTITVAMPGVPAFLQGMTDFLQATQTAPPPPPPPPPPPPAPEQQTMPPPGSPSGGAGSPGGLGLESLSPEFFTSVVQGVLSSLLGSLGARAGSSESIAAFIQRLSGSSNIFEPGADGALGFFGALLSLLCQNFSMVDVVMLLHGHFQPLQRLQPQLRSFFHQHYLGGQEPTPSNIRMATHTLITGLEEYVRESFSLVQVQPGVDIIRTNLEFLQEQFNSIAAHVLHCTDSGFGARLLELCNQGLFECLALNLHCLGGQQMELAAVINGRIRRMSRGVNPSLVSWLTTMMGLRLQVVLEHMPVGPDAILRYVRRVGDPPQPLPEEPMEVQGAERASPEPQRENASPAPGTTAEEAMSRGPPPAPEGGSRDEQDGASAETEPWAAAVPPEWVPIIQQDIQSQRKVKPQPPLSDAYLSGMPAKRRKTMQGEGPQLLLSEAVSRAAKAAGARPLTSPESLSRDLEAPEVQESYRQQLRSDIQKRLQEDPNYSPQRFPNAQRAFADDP

Variant | effect of a mutation on the interaction
MAWMLLLILIMVHPGSCALWVSQPPEIRTLEGSSAFLPCSFNASQGRLAIGSVTWFRDEVVPGKEVRNGTPEFRGRLAPLASSRFLHDHQAELHIRDVRGHDASIYVCRVEVLGLGVGTGNGTRLVVEKEHPQLGAGTVALLRAGFYAVSFLSVAVGSTVYYQGKCLTWKGPRRQLPAVVPAPLPPPCGSSAHLLPPVPGG [L140A] | with no effect
MAWMLLLILIMVHPGSCALWVSQPPEIRTLEGSSAFLPCSFNASQGRLAIGSVTWFRDEVVPGKEVRNGTPEFRGRLAPLASSRFLHDHQAELHIRDVRGHDASIYVCRVEVLGLGVGTGNGTRLVVEKEHPQLGAGAVLLLRAGFYAVSFLSVAVGSTVYYQGKCLTWKGPRRQLPAVVPAPLPPPCGSSAHLLPPVPGG [T138A] | increasing interaction strength
MAWMLLLILIMVHPGSCALWVSQPPEIRTLEGSSAFLPCSFNASQGRLAIGSVTWFRDEVVPGKEVRNGTPEFRGRLAPLASSRFLHDHQAELHIRDVRGHDASIYVCRVEVLGLGVGTGNGTRLVVEKEHPQLGAGTVLLLAAGFYAVSFLSVAVGSTVYYQGKCLTWKGPRRQLPAVVPAPLPPPCGSSAHLLPPVPGG [R143A] | decreasing interaction strength
MAWMLLLILIMVHPGSCALWVSQPPEIRTLEGSSAFLPCSFNASQGRLAIGSVTWFRDEVVPGKEVRNGTPEFRGRLAPLASSRFLHDHQAELHIRDVRGHDASIYVCRVEVLGLGVGTGNGTRLVVEKEHAQLGAGTVLLLRAGFYAVSFLSVAVGSTVYYQGKCLTWKGPRRQLPAVVPAPLPPPCGSSAHLLPPVPGG [P132A] | with no effect
MAWMLLLILIMVHPGSCALWVSQPPEIRTLEGSSAFLPCSFNASQGRLAIGSVTWFRDEVVPGKEVRNGTPEFRGRLAPLASSRFLHDHQAELHIRDVRGHDASIYVCRVEVLGLGVGTGNGTRLVVEKEHPALGAGTVLLLRAGFYAVSFLSVAVGSTVYYQGKCLTWKGPRRQLPAVVPAPLPPPCGSSAHLLPPVPGG [Q133A] | with no effect
MAWMLLLILIMVHPGSCALWVSQPPEIRTLEGSSAFLPCSFNASQGRLAIGSVTWFRDEVVPGKEVRNGTPEFRGRLAPLASSRFLHDHQAELHIRDVRGHDASIYVCRVEVLGLGVGTGNGTRLVVEKEHPQLGAGTVLALRAGFYAVSFLSVAVGSTVYYQGKCLTWKGPRRQLPAVVPAPLPPPCGSSAHLLPPVPGG [L141A] | decreasing interaction strength
MAWMLLLILIMVHPGSCALWVSQPPEIRTLEGSSAFLPCSFNASQGRLAIGSVTWFRDEVVPGKEVRNGTPEFRGRLAPLASSRFLHDHQAELHIRDVRGHDASIYVCRVEVLGLGVGTGNGTRLVVEKEHPQLGAATVLLLRAGFYAVSFLSVAVGSTVYYQGKCLTWKGPRRQLPAVVPAPLPPPCGSSAHLLPPVPGG [G137A] | with no effect
MAWMLLLILIMVHPGSCALWVSQPPEIRTLEGSSAFLPCSFNASQGRLAIGSVTWFRDEVVPGKEVRNGTPEFRGRLAPLASSRFLHDHQAELHIRDVRGHDASIYVCRVEVLGLGVGTGNGTRLVVEKEHPQAGAGTVLLLRAGFYAVSFLSVAVGSTVYYQGKCLTWKGPRRQLPAVVPAPLPPPCGSSAHLLPPVPGG [L134A] | with no effect
MAWMLLLILIMVHPGSCALWVSQPPEIRTLEGSSAFLPCSFNASQGRLAIGSVTWFRDEVVPGKEVRNGTPEFRGRLAPLASSRFLHDHQAELHIRDVRGHDASIYVCRVEVLGLGVGTGNGTRLVVEKEAPQLGAGTVLLLRAGFYAVSFLSVAVGSTVYYQGKCLTWKGPRRQLPAVVPAPLPPPCGSSAHLLPPVPGG [H131A] | with no effect
MAWMLLLILIMVHPGSCALWVSQPPEIRTLEGSSAFLPCSFNASQGRLAIGSVTWFRDEVVPGKEVRNGTPEFRGRLAPLASSRFLHDHQAELHIRDVRGHDASIYVCRVEVLGLGVGTGNGTRLVVEKEHPQLGAGTALLLRAGFYAVSFLSVAVGSTVYYQGKCLTWKGPRRQLPAVVPAPLPPPCGSSAHLLPPVPGG [V139A] | with no effect
MAWMLLLILIMVHPGSCALWVSQPPEIRTLEGSSAFLPCSFNASQGRLAIGSVTWFRDEVVPGKEVRNGTPEFRGRLAPLASSRFLHDHQAELHIRDVRGHDASIYVCRVEVLGLGVGTGNGTRLVVEKEHPQLGAGTVLLARAGFYAVSFLSVAVGSTVYYQGKCLTWKGPRRQLPAVVPAPLPPPCGSSAHLLPPVPGG [L142A] | decreasing interaction strength
MAWMLLLILIMVHPGSCALWVSQPPEIRTLEGSSAFLPCSFNASQGRLAIGSVTWFRDEVVPGKEVRNGTPEFRGRLAPLASSRFLHDHQAELHIRDVRGHDASIYVCRVEVLGLGVGTGNGTRLVVEAEHPQLGAGTVLLLRAGFYAVSFLSVAVGSTVYYQGKCLTWKGPRRQLPAVVPAPLPPPCGSSAHLLPPVPGG [K129A] | decreasing interaction strength
MAWMLLLILIMVHPGSCALWVSQPPEIRTLEGSSAFLPCSFNASQGRLAIGSVTWFRDEVVPGKEVRNGTPEFRGRLAPLASSRFLHDHQAELHIRDVRGHDASIYVCRVEVLGLGVGTGNGTRLVVEKEHPQLAAGTVLLLRAGFYAVSFLSVAVGSTVYYQGKCLTWKGPRRQLPAVVPAPLPPPCGSSAHLLPPVPGG [G135A] | increasing interaction strength
MAWMLLLILIMVHPGSCALWVSQPPEIRTLEGSSAFLPCSFNASQGRLAIGSVTWFRDEVVPGKEVRNGTPEFRGRLAPLASSRFLHDHQAELHIRDVRGHDASIYVCRVEVLGLGVGTGNGTRLVVEKAHPQLGAGTVLLLRAGFYAVSFLSVAVGSTVYYQGKCLTWKGPRRQLPAVVPAPLPPPCGSSAHLLPPVPGG [E130A] | increasing interaction strength
